Data taken from article PMC2835651.

System: Cc1cn([C@H]2C[C@H](O)[C@@H](COP(=O)(O)OP(=O)(O)OP(=O)(O)O)O2)c(=O)[nH]c1=O
Assay: purified protein
Conditions: poly(rA)/oligo(dT)15 template/primer; 25-250 μM TTP; labelled compound

PFV PR-RT (Human spumaretrovirus)
Km: 45 (± 12) μM
kcat: 7.1 s⁻¹
